B1: CDC25B (parent)
chain: ELKTFRLKTRSWAGERSRRELCSR
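Note: lentivirally expressed fusions sorted by FACS into six bins by GFP to DsRed ratio, PSI derived from sequencing read proportions per bin multiplied by bin number.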

The variants in the data set derive from B1. Description: protein stability index of a GFP-peptide fusion (GPS, HEK-293T) (PSI 1-6); higher = more stable. To be noted: c terminus: a fixed tail appended.
Consider ELKVFRLKTRSWAGERSRRELCSR [T4V], for which the protein stability index is 3.27.

Regarding ELKMFRLKTRSWAGERSRRELCSR [T4M], the protein stability index worked out at 2.96.

Turning to ELKRFRLKTRSWAGERSRRELCSR [T4R], the protein stability index was 2.52.

For the variant ELKPFRLKTRSWAGERSRRELCSR [T4P], the protein stability index worked out at 3.41.

Turning to ELKYFRLKTRSWAGERSRRELCSR [T4Y], the protein stability index turned out to be 3.27.

ELKQFRLKTRSWAGERSRRELCSR [T4Q]: the protein stability index was 3.18.

With ELKNFRLKTRSWAGERSRRELCSR [T4N], the protein stability index was found to be 2.09.

Consider ELKGFRLKTRSWAGERSRRELCSR [T4G], for which the protein stability index stood at 2.9.

For ELKDFRLKTRSWAGERSRRELCSR [T4D], the protein stability index is 4.42.

For the variant ELKTFRLATRSWAGERSRRELCSR [K8A], the protein stability index came to 2.88.

For the variant ELKTFRLQTRSWAGERSRRELCSR [K8Q], the protein stability index amounted to 3.34.

In the case of ELKTFRLCTRSWAGERSRRELCSR [K8C], the protein stability index came to 2.73.

ELKTFRLNTRSWAGERSRRELCSR [K8N]: the protein stability index came to 2.99.

Take ELKTFRLITRSWAGERSRRELCSR [K8I]: the protein stability index is 1.92.

For the variant ELKTFRLGTRSWAGERSRRELCSR [K8G], the protein stability index amounted to 2.4.

In the case of ELKTFRLYTRSWAGERSRRELCSR [K8Y], the protein stability index was 2.71.

On to ELKTFRLTTRSWAGERSRRELCSR [K8T], for which the protein stability index came out at 3.65.

For the variant ELKTFRLETRSWAGERSRRELCSR [K8E], the protein stability index was 3.2.

ELKTFRLDTRSWAGERSRRELCSR [K8D]: the protein stability index was 3.41.

With ELKTFRLPTRSWAGERSRRELCSR [K8P], the protein stability index came out at 2.77.

In the case of ELKTFRLWTRSWAGERSRRELCSR [K8W], the protein stability index came out at 2.1.

With ELKTFRLRTRSWAGERSRRELCSR [K8R], the protein stability index was determined as 5.09.

ELKTFRLSTRSWAGERSRRELCSR [K8S]: the protein stability index came to 3.55.

In the case of ELKTFRLFTRSWAGERSRRELCSR [K8F], the protein stability index amounted to 2.28.

ELKTFRLMTRSWAGERSRRELCSR [K8M]: the protein stability index is 2.8.

For the variant ELKTFRLHTRSWAGERSRRELCSR [K8H], the protein stability index stood at 3.07.

Regarding ELKTFRLVTRSWAGERSRRELCSR [K8V], the protein stability index stood at 2.68.

Turning to ELKTFRLLTRSWAGERSRRELCSR [K8L], the protein stability index was 3.2.

With ELKTFRLKTRCWAGERSRRELCSR [S11C], the protein stability index came to 2.63.

In the case of ELKTFRLKTREWAGERSRRELCSR [S11E], the protein stability index stood at 3.11.

On to ELKTFRLKTRKWAGERSRRELCSR [S11K], for which the protein stability index was 2.64.

ELKTFRLKTRDWAGERSRRELCSR [S11D]: the protein stability index turned out to be 2.95.

On to ELKTFRLKTRLWAGERSRRELCSR [S11L], for which the protein stability index is 2.61.

ELKTFRLKTRGWAGERSRRELCSR [S11G]: the protein stability index came out at 2.94.

With ELKTFRLKTRIWAGERSRRELCSR [S11I], the protein stability index was 2.71.

In the case of ELKTFRLKTRHWAGERSRRELCSR [S11H], the protein stability index was 1.95.

Consider ELKTFRLKTRFWAGERSRRELCSR [S11F], for which the protein stability index came to 2.58.

On to ELKTFRLKTRAWAGERSRRELCSR [S11A], for which the protein stability index amounted to 2.68.

In the case of ELKTFRLKTYSWAGERSRRELCSR [R10Y], the protein stability index amounted to 3.19.

In the case of ELKTFRLKTISWAGERSRRELCSR [R10I], the protein stability index was 2.8.

For ELKTFRLKTCSWAGERSRRELCSR [R10C], the protein stability index stood at 2.94.

Turning to ELKTFRLKTDSWAGERSRRELCSR [R10D], the protein stability index came out at 3.62.

In the case of ELKTFRLKTLSWAGERSRRELCSR [R10L], the protein stability index was determined as 3.38.

ELKTFRLKTGSWAGERSRRELCSR [R10G]: the protein stability index was determined as 2.44.

Take ELKTFRLKTHSWAGERSRRELCSR [R10H]: the protein stability index was 3.04.

Regarding ELKTFRLKTTSWAGERSRRELCSR [R10T], the protein stability index is 2.37.

As to ELKTFRLKTMSWAGERSRRELCSR [R10M], the protein stability index was found to be 2.92.

With ELKTFRLKTWSWAGERSRRELCSR [R10W], the protein stability index stood at 2.41.

In the case of ELKTFRLKTSSWAGERSRRELCSR [R10S], the protein stability index amounted to 3.5.

As for ELKTFRLKTESWAGERSRRELCSR [R10E], the protein stability index is 2.66.

For the variant ELKTFRLKTASWAGERSRRELCSR [R10A], the protein stability index was found to be 3.15.

On to ELKTFRLKTPSWAGERSRRELCSR [R10P], for which the protein stability index amounted to 3.13.

Regarding ELKTFRLKTVSWAGERSRRELCSR [R10V], the protein stability index was 2.45.

For ELKTFRLKTFSWAGERSRRELCSR [R10F], the protein stability index amounted to 2.54.

In the case of ELKTFRLKTQSWAGERSRRELCSR [R10Q], the protein stability index came out at 3.1.

For the variant ELKTFRLKTKSWAGERSRRELCSR [R10K], the protein stability index worked out at 3.66.

Turning to ELKTFRLKTNSWAGERSRRELCSR [R10N], the protein stability index was 3.13.

Regarding ELQTFRLKTRSWAGERSRRELCSR [K3Q], the protein stability index was determined as 3.25.

For ELETFRLKTRSWAGERSRRELCSR [K3E], the protein stability index was found to be 3.29.

As for ELSTFRLKTRSWAGERSRRELCSR [K3S], the protein stability index is 3.62.

Turning to ELATFRLKTRSWAGERSRRELCSR [K3A], the protein stability index worked out at 2.92.

In the case of ELTTFRLKTRSWAGERSRRELCSR [K3T], the protein stability index is 3.2.

Consider ELCTFRLKTRSWAGERSRRELCSR [K3C], for which the protein stability index stood at 2.78.

Regarding ELMTFRLKTRSWAGERSRRELCSR [K3M], the protein stability index turned out to be 3.02.

Turning to ELPTFRLKTRSWAGERSRRELCSR [K3P], the protein stability index stood at 3.42.

As for ELITFRLKTRSWAGERSRRELCSR [K3I], the protein stability index amounted to 1.89.

Turning to ELLTFRLKTRSWAGERSRRELCSR [K3L], the protein stability index is 2.14.

For ELGTFRLKTRSWAGERSRRELCSR [K3G], the protein stability index amounted to 3.71.

Turning to ELRTFRLKTRSWAGERSRRELCSR [K3R], the protein stability index came to 3.6.

Consider ELFTFRLKTRSWAGERSRRELCSR [K3F], for which the protein stability index came to 1.61.

As for ELWTFRLKTRSWAGERSRRELCSR [K3W], the protein stability index turned out to be 2.44.

For the variant ELHTFRLKTRSWAGERSRRELCSR [K3H], the protein stability index was determined as 3.63.

Turning to ELDTFRLKTRSWAGERSRRELCSR [K3D], the protein stability index worked out at 3.33.

Turning to ELVTFRLKTRSWAGERSRRELCSR [K3V], the protein stability index amounted to 2.67.

Turning to ELYTFRLKTRSWAGERSRRELCSR [K3Y], the protein stability index is 2.91.

As for ELNTFRLKTRSWAGERSRRELCSR [K3N], the protein stability index was 3.38.

For ELKTFRPKTRSWAGERSRRELCSR [L7P], the protein stability index amounted to 3.99.

Turning to ELKTFRYKTRSWAGERSRRELCSR [L7Y], the protein stability index stood at 3.29.

Take ELKTFRKKTRSWAGERSRRELCSR [L7K]: the protein stability index was 4.68.

As for ELKTFRRKTRSWAGERSRRELCSR [L7R], the protein stability index turned out to be 4.57.

For ELKTFRHKTRSWAGERSRRELCSR [L7H], the protein stability index is 3.6.

In the case of ELKTFRAKTRSWAGERSRRELCSR [L7A], the protein stability index was found to be 3.75.

Consider ELKTFREKTRSWAGERSRRELCSR [L7E], for which the protein stability index was found to be 4.07.

ELKTFRMKTRSWAGERSRRELCSR [L7M]: the protein stability index came out at 3.81.

As to ELKTFRWKTRSWAGERSRRELCSR [L7W], the protein stability index was determined as 2.99.

ELKTFRTKTRSWAGERSRRELCSR [L7T]: the protein stability index came to 4.08.

As for ELKTFRQKTRSWAGERSRRELCSR [L7Q], the protein stability index is 3.75.

ELKTFRDKTRSWAGERSRRELCSR [L7D]: the protein stability index came to 3.86.

Consider ELKTFRSKTRSWAGERSRRELCSR [L7S], for which the protein stability index was determined as 3.91.

For ELKTFRGKTRSWAGERSRRELCSR [L7G], the protein stability index was found to be 4.12.

On to ELKTFRCKTRSWAGERSRRELCSR [L7C], for which the protein stability index was 3.98.

As to ELKTFRNKTRSWAGERSRRELCSR [L7N], the protein stability index is 3.57.

ELKTFRVKTRSWAGERSRRELCSR [L7V]: the protein stability index turned out to be 3.33.

On to ELKTFRIKTRSWAGERSRRELCSR [L7I], for which the protein stability index amounted to 3.25.

Values taken from the supplement of paper PMC10567573.
